Measurements taken from the supplement of paper PMC10724198.
± gives the standard deviation of the averaged measurements.

What follows are sequences tested on Saccharomyces cerevisiae (assay: protein stability index of tFT-peptide fusion (C-terminal peptide) (PSI (0-1 scale)); higher = more stable (slower turnover)). Settings: genetic background: wild type; temperature: 30 C.
Description: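 Multiplexed protein stability (MPS) profiling in S. cerevisiae. Random 12-aa peptides (tFT-X12 library) are fused to the C-terminus of a sfGFP-mCherry tandem fluorescent timer, after mCherry and a GGGS linker. Cells are FACS-sorted into 8 mCherry/sfGFP bins and deep-sequenced. The protein stability index (PSI) is the read-weighted bin average, scaled from 0 (unstable) to 1 (stable). Only peptides with >10 reads are reported; cells were grown at 30 °C in SC-His with glucose.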
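Further: PSI is a weighted mean of sequencing reads over stability bins, variants kept only with over 10 reads, mCherry proximal and sfGFP distal, peptide attached via GGGS linker.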

Sequence | protein stability index
GAVRGGSGDWGR | 0.723 ± 0.0083
GAWFSWLGEVVG | 0.701 ± 0.075
GCASTNTPSTTP | 0.714 ± 0.022
GCENSRRSWRPD | 0.609 ± 0.028
GCFTLLCFRRIL | 0.511 ± 0.012
GCGCVVRVWSGV | 0.6621 ± 0.0013
GCGDSLGGERRE | 0.643 ± 0.1
GCLCAGSMVGDL | 0.666 ± 0.015
GCLLVVGGVWGS | 0.625 ± 0.036
GCLVGRGQRGTE | 0.686 ± 0.026
GCQVAVGRAGGV | 0.659 ± 0.023
GCRGGLREAGVW | 0.768 ± 0.024
GCRLVSDCRVFV | 0.67 ± 0.031
GCSLTFAGLFCI | 0.629 ± 0.01
GCTNSCGRHVKG | 0.6426 ± 0.006
GCWGGLGAPGVS | 0.734 ± 0.028
GDFFVSFRCLLL | 0.606 ± 0.027
GDNRSVSRKAEW | 0.614 ± 0.047
GDRAKTKQRESN | 0.671 ± 0.01
GDTKKRTQGRGV | 0.653 ± 0.011
GDTRILKSRPEI | 0.699 ± 0.0098
GEAFLVRRSRNR | 0.722 ± 0.082
GEAVTGQRGATS | 0.71 ± 0.025
GEDGCGWSEAGG | 0.664 ± 0.017
GEEGAWSRQGPP | 0.658 ± 0.035

Sequence | protein stability index
GEEGQRGRGWRS | 0.733 ± 0.039
GEGNAIGQVVRN | 0.681 ± 0.021
GEILTLYLLPRL | 0.705 ± 0.052
GELADVVWLGGE | 0.652 ± 0.057
GENTRKNNVVGE | 0.69 ± 0.017
GENVVPGLHTQV | 0.675 ± 0.064
GEPSYLEYSNLV | 0.765 ± 0.042
GEQEKRFFLSPL | 0.717 ± 0.021
GERWGGGRAAET | 0.714 ± 0.076
GETGGRSQDARI | 0.744 ± 0.088
GEVAQDLGRDIL | 0.7124 ± 0.0019
GEYLWVHRIISE | 0.679 ± 0.086
GEYYAPVVGRRF | 0.7121 ± 0.0031
GFCLGSLPQRLD | 0.65 ± 0.019
GFCWFRGVGSGG | 0.683 ± 0.044
GFFNNRLASSLR | 0.734 ± 0.098
GFFRRNLGRVMD | 0.608 ± 0.074
GFGLACGRCMGS | 0.623 ± 0.098
GFLGLLASFFVL | 0.604 ± 0.022
GFLSSLRLLPPF | 0.688 ± 0.029
GFLSSSKSCRCH | 0.632 ± 0.059
GFNRRVWRGLGV | 0.721 ± 0.053
GFRLCVFGSSLF | 0.6956 ± 0.0025
GFSLGAPRPFVQ | 0.718 ± 0.039
GFSSVPFFPLSR | 0.7142 ± 0.003

Sequence | protein stability index
GFTCGCSSMKNF | 0.718 ± 0.021
GFVPRSFNTLTS | 0.664 ± 0.053
GFVPWVCGVRMS | 0.689 ± 0.051
GFWESLGGVGAE | 0.697 ± 0.049
GGAAAWAERCGG | 0.726 ± 0.0097
GGACGRRSEDCQ | 0.633 ± 0.087
GGAEEGRANCWN | 0.722 ± 0.1
GGAFPGPGFGLD | 0.68 ± 0.017
GGAPMRPGGGTC | 0.678 ± 0.065
GGASRLARMGWW | 0.642 ± 0.034
GGAVGYRLVACD | 0.656 ± 0.11
GGAVSRVGEWGR | 0.7881 ± 0.0073
GGCGSAGRGQRG | 0.697 ± 0.062
GGCGWRGDGGGA | 0.679 ± 0.13
GGCSRYVLILFD | 0.686 ± 0.15
GGDCGERRGNEV | 0.65 ± 0.05
GGEGWGAFWGGE | 0.713 ± 0.05
GGELGGTGVGGG | 0.6881 ± 0.0016
GGFKGGKWVVEG | 0.606 ± 0.021
GGFRREPWEILR | 0.649 ± 0.0012
GGFSLTGSLCID | 0.687 ± 0.035
GGGAAGILWGLG | 0.694 ± 0.013
GGGAGGVVGGIS | 0.694 ± 0.027
GGGAGLVGGCVA | 0.735 ± 0.019
GGGARQAGGDNI | 0.666 ± 0.045

Sequence | protein stability index
GGGCGGACRPVG | 0.692 ± 0.14
GGGCGGGGSSCA | 0.654 ± 0.069
GGGCGGGQAGCQ | 0.691 ± 0.043
GGGCGMEPGCGP | 0.687 ± 0.062
GGGFRVLCVGLG | 0.627 ± 0.037
GGGGEDQSQGPP | 0.69 ± 0.027
GGGGFGFGWSMV | 0.709 ± 0.059
GGGGGECCFLEG | 0.753 ± 0.081
GGGGGGGSRTGA | 0.691 ± 0.037
GGGGGGPSGGSG | 0.701 ± 0.079
GGGGGGVDWFEI | 0.71359 ± 2.1e-05
GGGGGISGGRWG | 0.667 ± 0.075
GGGGGLRVSCGT | 0.679 ± 0.083
GGGGGVWGVGRV | 0.66 ± 0.047
GGGGRWGVLVLG | 0.504 ± 0.0062
GGGGVACAGCTV | 0.637 ± 0.056
GGGGWGGAGLVG | 0.704 ± 0.014
GGGMRLVKRACY | 0.64 ± 0.031
GGGNRGTGCDWG | 0.628 ± 0.013
GGGPGRGVWVRV | 0.705 ± 0.021
GGGRCSGDGDRG | 0.708 ± 0.063
GGGREGNGRERS | 0.594 ± 0.053
GGGRWWRVGVGF | 0.729 ± 0.021
GGGVDSGWGKGE | 0.688 ± 0.024
GGGVGVPDSASE | 0.681 ± 0.047

Sequence | protein stability index
GGKKRGVRMCGG | 0.655 ± 0.013
GGLGGWAECGRW | 0.748 ± 0.11
GGLLGRLWDGGA | 0.723 ± 0.04
GGLREPIYQLWV | 0.648 ± 0.076
GGMAFSRPSFNG | 0.729 ± 0.032
GGMMRGHRHRCW | 0.812 ± 0.0095
GGPPTQAKPSPR | 0.647 ± 0.012
GGPSLTRCAAFG | 0.677 ± 0.063
GGQGFWRLWCLG | 0.686 ± 0.05
GGQRPKRQQLTT | 0.7022 ± 0.0058
GGREVGQVLWDD | 0.667 ± 0.024
GGREWRGGQGEV | 0.669 ± 0.12
GGRGGRSGTEGE | 0.6763 ± 0.0011
GGRGPRGAANRG | 0.634 ± 0.066
GGRRKKRVTPGE | 0.656 ± 0.0097
GGRRRAWLGGRW | 0.746 ± 0.012
GGRVAGSMGVGG | 0.68 ± 0.02
GGRWGGVSLGGR | 0.693 ± 0.11
GGSESRGSDRWE | 0.633 ± 0.038
GGSGQGAGAVWG | 0.63 ± 0.076
GGSNEKARGTGR | 0.6544 ± 0.00083
GGSVGGGTGWRM | 0.65 ± 0.022
GGVGGASMSGTP | 0.674 ± 0.037
GGVGVGVGCGGR | 0.6828 ± 0.0017
GGVRGERSDLRT | 0.712 ± 0.028

Sequence | protein stability index
GGVVLTWVGENC | 0.704 ± 0.061
GGWEGLRGLGVG | 0.634 ± 0.031
GGWGGAGQWADG | 0.706 ± 0.011
GGWGGKLVGRMG | 0.708 ± 0.0083
GGWGVGVWGVGG | 0.753 ± 0.08
GGWKINYVEENR | 0.663 ± 0.011
GGWTFGSPPYEI | 0.693 ± 0.015
GGYSNRNVEVIV | 0.6323 ± 0.003
GHKVTKDAIRIR | 0.6545 ± 0.0047
GHRMMWLFGVPA | 0.59 ± 0.035
GHSNVTSQIRRG | 0.643 ± 0.017
GHVRVVVRRRVI | 0.5812 ± 0.0021
GHWTRRPSVKGK | 0.643 ± 0.0092
GICIVGGCGCVG | 0.612 ± 0.068
GINFEIKFKRYN | 0.764 ± 0.055
GIRRSLALSAIS | 0.555 ± 0.017
GISKHGAITSRI | 0.725 ± 0.0033
GIVDCTKVIGLP | 0.722 ± 0.028
GKARLATGESAL | 0.674 ± 0.031
GKCKRYENISKR | 0.629 ± 0.0095
GKCLEGCCLVWG | 0.686 ± 0.008
GKEGGKAGKISE | 0.667 ± 0.028
GKEKRKEGERRK | 0.697 ± 0.12
GKPTPRRPEKDG | 0.6096 ± 0.0051
GKRKGETGNRGG | 0.741 ± 0.19

Sequence | protein stability index
GKRKKRRKRRRT | 0.664 ± 0.043
GKRRKKDGNKKR | 0.621 ± 0.066
GKSTFWTELAII | 0.648 ± 0.045
GKYIPHGNPSMA | 0.685 ± 0.051
GLAIRRDWLGWV | 0.745 ± 0.056
GLCGGFGGLRGL | 0.743 ± 0.031
GLCLFPAFSFPF | 0.671 ± 0.089
GLCVFVNKPSIL | 0.711 ± 0.011
GLCVGVGLVWKL | 0.65 ± 0.07
GLDEGCRVGEEV | 0.643 ± 0.013
GLFDLLCHCCWL | 0.702 ± 0.05
GLFNIDLFRFVR | 0.732 ± 0.041
GLFPGSRLRLVE | 0.666 ± 0.011
GLFVDIRLHRRT | 0.71 ± 0.017
GLGGGRCFWGVG | 0.686 ± 0.061
GLGGGVGGGLVV | 0.7045 ± 0.0046
GLGGSKKGEQRL | 0.674 ± 0.012
GLGLVSWEAGGV | 0.68 ± 0.025
GLGTRLSAVVLS | 0.625 ± 0.039
GLGWPPGEARRV | 0.621 ± 0.047
GLIATWMYKFVF | 0.617 ± 0.038
GLLAIVLYEYTG | 0.537 ± 0.0083
GLLARESLSFRH | 0.675 ± 0.026
GLLGVGDFRTEF | 0.638 ± 0.048
GLMTISFPSFFR | 0.704 ± 0.068

Sequence | protein stability index
GLMYDGVGCGGD | 0.671 ± 0.012
GLNGGRLEGERR | 0.731 ± 0.11
GLNLDLSGRLAF | 0.703 ± 0.032
GLQFYPFLSVVR | 0.617 ± 0.013
GLQIERAVGIRH | 0.708 ± 0.028
GLRLGRVWVGGW | 0.6647 ± 0.0026
GLRRSTRSRLVF | 0.593 ± 0.12
GLRRTGRISGSV | 0.7 ± 0.0076
GLRSKLEKVQRG | 0.726 ± 0.047
GLSCESLRLFFR | 0.702 ± 0.015
GLSFSAALFSAF | 0.673 ± 0.05
GLSHPPNFLPSG | 0.6505 ± 0.00088
GLSIVGAALHSA | 0.663 ± 0.025
GLSSGLWAFWWP | 0.749 ± 0.049
GLTCKSTASCKV | 0.693 ± 0.01
GLVCRKGSMGVR | 0.671 ± 0.057
GLVFSFSACPVL | 0.653 ± 0.066
GLVGCLFFCCIG | 0.558 ± 0.013
GLVGLSLSSCGR | 0.653 ± 0.088
GLVLPGHLTLAS | 0.628 ± 0.08
GLVRGRLVGLED | 0.646 ± 0.056
